Substitutions are numbered along the chain they refer to. Names and notes keep the numbering of the source.
B1: mAb3 (antibody)
heavy: not shown
light: QAVVTQPPSVSGAPGQRVTISCTGSSSNIGADYNVHWYQLLPGTAPKLLIYGNTNRPSGVPDRFSGSKSGTSASLAITGLQAEDEADYYCQSYDSSLSASVFGGGTKLTVLGQPKAAPSVTLFPPSSEELQANKATLVCLISDFYPGAVTVAWKADSSPVKAGVETTTPSKQSNNKYAASSYLSLTPEQWKSHRSYSCQVTHEGSTVEKTVAPTECS
notes: also called mAb1A
B2: mAb4 (antibody)
heavy: QVQLVQSGAEVKKPGASVKVSCKASGYSFTSYGISWVRQAPGQGLEWMGWISTYKGYTQYAQNFQGRVTITTDTPATTVYMELRSLRSDDTAVYYCARVLSETGYFYYYYYGMDVWGQGTLVTVSSASTKGPSVFPLAPSSKSTSGGTAALGCLVKDYFPEPVTVSWNSGALTSGVHTFPAVLQSSGLYSLSSVVTVPSSSLGTQTYICNVNHKPSNTKVDKKVEPKSCDKTHTCPPCPAPELLGGPSVFLFPPKPKDTLMISRTPEVTCVVVDVSHEDPEVKFNWYVDGVEVHNAKTKPREEQYNSTYRVVSVLAVLHQDWLNGKEYKCKVSNKALPAPIEKTISKAKGQPREPQVYTLPPSRDELTKNQVSLTCLVKGFYPSDIAVAWESNGQPENNYKTTPPVLDSDGSFFLYSKLTVDKSRWQQGNVFSCSVMHEALHAHYTQKSLSLSPG
light: B1 light
notes: also called mAb1AAA
B3: mAb5 (antibody)
heavy: not shown
light: B1 light
notes: also called mAb1QL
B4: mAb6 (antibody)
heavy: B2 heavy with M261Y, S263T, T265E, A316T, A389E, A443N
light: B1 light
notes: also called mAb1YTE
B5: mAb2 (antibody)
heavy: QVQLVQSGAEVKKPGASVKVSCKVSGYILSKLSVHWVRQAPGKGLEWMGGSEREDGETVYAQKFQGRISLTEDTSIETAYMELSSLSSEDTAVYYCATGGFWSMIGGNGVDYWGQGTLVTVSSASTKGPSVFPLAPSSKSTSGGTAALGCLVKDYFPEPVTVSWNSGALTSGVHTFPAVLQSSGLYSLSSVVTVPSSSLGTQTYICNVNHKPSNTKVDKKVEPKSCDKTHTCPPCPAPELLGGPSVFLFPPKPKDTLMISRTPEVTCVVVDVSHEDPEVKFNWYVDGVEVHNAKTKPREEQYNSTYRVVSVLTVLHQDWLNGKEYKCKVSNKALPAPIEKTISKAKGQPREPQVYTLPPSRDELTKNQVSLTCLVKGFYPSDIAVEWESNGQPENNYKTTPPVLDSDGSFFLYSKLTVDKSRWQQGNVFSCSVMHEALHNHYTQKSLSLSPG
light: QAVVTQSPSSLPASVGDRVTITCRASQDIRNNLGWYQQKPGKAPERLIYGTSNLQSGVPSRFSGSGSGTEFTLTISSLQPEDFATYYCLQHNSYPPTFGRGTKVEIKRTVAAPSVFIFPPSDEQLKSGTASVVCLLNNFYPREAKVQWKVDNALQSGNSQESVTEQDSKDSTYSLSSTLTLSKADYEKHKVYACEVTHQGLSSPVTKSFNRGEC
notes: also called parent antibody mAb2
B6: mAb11 (antibody)
heavy: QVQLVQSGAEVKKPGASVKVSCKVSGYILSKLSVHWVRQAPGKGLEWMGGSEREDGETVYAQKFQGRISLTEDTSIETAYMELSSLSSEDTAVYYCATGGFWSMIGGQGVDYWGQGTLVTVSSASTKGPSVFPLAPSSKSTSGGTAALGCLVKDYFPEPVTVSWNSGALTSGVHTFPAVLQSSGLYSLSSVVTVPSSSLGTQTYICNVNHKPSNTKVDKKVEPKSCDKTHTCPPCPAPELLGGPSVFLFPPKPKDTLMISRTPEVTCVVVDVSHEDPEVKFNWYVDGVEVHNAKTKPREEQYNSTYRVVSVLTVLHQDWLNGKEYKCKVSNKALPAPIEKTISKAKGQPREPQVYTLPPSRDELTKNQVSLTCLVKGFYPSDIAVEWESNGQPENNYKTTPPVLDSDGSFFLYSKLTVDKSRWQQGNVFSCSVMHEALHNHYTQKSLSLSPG
light: B5 light
notes: also called mAb2N108Q; mAb2 N108Q
B7: mAb8 (antibody)
heavy: QVQLVQSGAEVKKPGASVKVSCKVSGYILSKLSVHWVRQAPGKGLEWMGGSEREDGETVYAQKFQGRISLTEDTSIETAYMELSSLSSEDTAVYYCATGGFWSMIGGNGVDYWGQGTLVTVSSASTKGPSVFPLAPSSKSTSGGTAALGCLVKDYFPEPVTVSWNSGALTSGVHTFPAVLQSSGLYSLSSVVTVPSSSLGTQTYICNVNHKPSNTKVDKKVEPKSCDKTHTCPPCPAPELLGGPSVFLFPPKPKDTLYITREPEVTCVVVDVSHEDPEVKFNWYVDGVEVHNAKTKPREEQYNSTYRVVSVLTVLHQDWLNGKEYKCKVSNKALPAPIEKTISKAKGQPREPQVYTLPPSRDELTKNQVSLTCLVKGFYPSDIAVEWESNGQPENNYKTTPPVLDSDGSFFLYSKLTVDKSRWQQGNVFSCSVMHEALHNHYTQKSLSLSPG
light: B5 light
notes: also called mAb2YTE
B8: mAb12 (antibody, V domains shown)
VH: QVQLVQSGAEVKKPGASVKVSCKVSGYILSKLSVHWVRQAPGKGLEWMGGSEREDGETVYAQKFQGRISLTEDTSIETAYMELSSLSSEDTAVYYCATGGFWSMIGGNAVDYWGQGTLVTVSS
VL: QAVVTQSPSSLPASVGDRVTITCRASQDIRNNLGWYQQKPGKAPERLIYGTSNLQSGVPSRFSGSGSGTEFTLTISSLQPEDFATYYCLQHNSYPPTFGRGTKVEIKR
notes: also called mAb2G109A; mAb2 G109A
B9: mAb10 (antibody, V domains shown)
VH: B8 VH with M104I, A109G
VL: B8 VL
notes: also called mAb2M104I
B10: M104A/N108Q (antibody, V domains shown)
VH: B8 VH with M104A, N108Q, A109G
VL: B8 VL
notes: also called mAb2 M104A/N108Q; double mutant of mAb2 in CDRH3
B11: mAb2 M104A (antibody, V domains shown)
VH: B8 VH with M104A, A109G
VL: B8 VL
notes: also called variant comprising an alanine at position 8 of its CDRH3
B12: M104A/G109A (antibody, V domains shown)
VH: B8 VH with M104A
VL: B8 VL
notes: also called mAb2 M104A/G109A; double mutant of mAb2 in CDRH3

What follows are binders tested against T1, recombinant human FcRn (human, UniProt P55899 24-297; P61769 21-119) (assay: SPR, human FcRn immobilised; relative to mAb1).
T1 construct: also called human FcRn receptor
T1 sequence (P55899 24-297 limits assumed, chain 1 of 2): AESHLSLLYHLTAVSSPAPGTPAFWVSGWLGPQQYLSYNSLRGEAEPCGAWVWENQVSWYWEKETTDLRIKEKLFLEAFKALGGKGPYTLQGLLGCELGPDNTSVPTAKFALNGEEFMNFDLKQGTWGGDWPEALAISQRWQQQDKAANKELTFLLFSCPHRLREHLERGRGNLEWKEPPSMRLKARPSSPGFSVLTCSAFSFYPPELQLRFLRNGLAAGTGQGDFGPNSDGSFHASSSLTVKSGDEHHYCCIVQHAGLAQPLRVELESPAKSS
T1 sequence (P61769 21-119 limits assumed, chain 2 of 2): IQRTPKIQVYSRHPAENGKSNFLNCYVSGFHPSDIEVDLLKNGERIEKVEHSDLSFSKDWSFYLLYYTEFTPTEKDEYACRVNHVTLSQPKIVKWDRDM
In the case of B1, the “Affinity Increase (fold)” value is reported as 7.7 fold. B2 was tested, and the “Affinity Increase (fold)” value was 11.3 fold. B3 was tested, and the “Affinity Increase (fold)” value was 13 fold. In the case of B4, the “Affinity Increase (fold)” value is reported as 16.3 fold.

What follows are binders tested against T1, recombinant human FcRn (assay: SPR (Biacore T200), human FcRn immobilised on CM5 chip).
B5 gave a Kd of 328 nM. Work on B6 yielded a Kd of 301 nM. B7 gave a Kd of 23 nM.

Each binder was assayed against Antigen (E2) (Chikungunya virus) (assay: SPR (Biacore T200), His-tagged antigen captured by anti-His antibody, 1:1 model).
B5 gave a Kd of 0.13 nM. Binder B6 has a Kd of 0.22 nM. With B8 the Kd was 0.5 nM. B9 showed a Kd of 0.94 nM.

Biological target: T1, recombinant human FcRn
Assay: SPR (Biacore T200), human FcRn immobilised on CM5 chip
Remark: another data set of the same source
B1 was tested, and the Kd was 45 nM. B2 gave a Kd of 31 nM. For B3, the Kd was 27 nM. Work on B4 yielded a Kd of 21 nM.

These binders were tested against T2, Recombinant human HPC4-tagged FcγRIII-F158 (human, UniProt P08637 17-208) (assay: SPR (Biacore 3000), HPC4-tagged FcγRIII-F158 captured on anti-HPC4 CM5 chip, antibody injected 2 min, in duplicate; concentration (900, 300 or 100 nM in the methods) not printed on the sheet).
T2 construct: also called FcγRIIIaF158; not shown: HPC4 tag
T2 sequence (P08637 17-208): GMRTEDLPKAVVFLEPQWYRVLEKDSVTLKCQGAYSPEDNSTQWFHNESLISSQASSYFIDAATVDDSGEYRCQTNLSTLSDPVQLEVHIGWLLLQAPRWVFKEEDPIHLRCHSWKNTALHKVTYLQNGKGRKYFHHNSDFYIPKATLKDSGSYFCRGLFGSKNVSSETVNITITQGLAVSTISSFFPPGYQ
B1: binds. B2: binds. B3: binds. B4: binds.

These binders were tested against T3, recombinant mouse FcRn (mouse, UniProt Q61559 22-297; P01887 21-119) (assay: SPR (Biacore T200), mouse FcRn immobilised on CM5 chip).
T3 sequence 1: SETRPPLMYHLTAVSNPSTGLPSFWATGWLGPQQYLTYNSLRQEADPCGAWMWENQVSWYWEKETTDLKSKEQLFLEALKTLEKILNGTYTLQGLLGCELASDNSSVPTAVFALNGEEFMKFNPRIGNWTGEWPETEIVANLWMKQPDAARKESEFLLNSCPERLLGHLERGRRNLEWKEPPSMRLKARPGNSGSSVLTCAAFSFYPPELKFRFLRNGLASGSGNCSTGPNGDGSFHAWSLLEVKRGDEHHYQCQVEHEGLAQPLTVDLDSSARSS
T3 sequence 2: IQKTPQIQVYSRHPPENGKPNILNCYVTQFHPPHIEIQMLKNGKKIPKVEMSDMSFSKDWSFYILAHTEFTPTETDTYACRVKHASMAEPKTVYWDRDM
With B1 the Kd was 9.3 nM. B2 was tested, and the Kd was 8.4 nM. With B3 the Kd was 5.9 nM. B4 was tested, and the Kd was 1.9 nM.

Each binder was assayed against T1, recombinant human FcRn (assay: SPR, human FcRn immobilised; relative to mAb2).
B5 was tested, and the “Affinity Increase (fold)” value was 1 fold. B6 was tested, and the “Affinity Increase (fold)” value was 1.1 fold. For B7, the “Affinity Increase (fold)” value was 14.1 fold.

What follows are binders tested against T4, His-tagged CHIKV E2 LR2006 (Chikungunya virus strain LR2006, UniProt Q8JUX5 326-1220) (assay: not given).
T4 construct: also called CHIKV pE2-E1 antigen derived from CHIKV strain LR2006; pE2-E1 target
B5: binds. B10: no binding. B11: no binding. B6: binds. B8: binds. B9: binds. B12: no binding.

The binders below were run against T5, Recombinant human HPC4-tagged FcγRIIIa-V158 (human, UniProt P08637 17-208) (assay: SPR (Biacore 3000), HPC4-tagged FcγRIIIa-V158 captured on anti-HPC4 CM5 chip, antibody injected 2 min, in duplicate; concentration (900, 300 or 100 nM in the methods) not printed on the sheet).
T5 construct: Valine at 158 is a polymorphism, named without an old residue; also called Val158; not shown: HPC4 tag
T5 sequence (P08637 17-208 F176V): as the sequence (P08637 17-208) above, with F160V counted along it
B1: binds. B2: binds. B3: binds. B4: binds.

Biological target: T2, Recombinant human HPC4-tagged …
Assay: SPR (Biacore 3000), HPC4-tagged FcγRIII-F158 captured on anti-HPC4 CM5 chip, antibody injected 2 min, in duplicate; concentration (900, 300 or 100 nM in the methods) not printed on the sheet
Remark: another data set of the same source
B5: binds. B6: binds. B7: binds.

Each binder was assayed against T3, recombinant mouse FcRn (assay: SPR, mouse FcRn immobilised; relative to mAb2).
For B5, the “Affinity Increase (fold)” value was 1 fold. In the case of B6, the “Affinity Increase (fold)” value is reported as 1.1 fold. With B7 the “Affinity Increase (fold)” value was 19.5 fold.

What follows are binders tested against T3, recombinant mouse FcRn (assay: SPR, mouse FcRn immobilised; relative to mAb1).
In the case of B1, the “Affinity Increase (fold)” value is reported as 2.1 fold. In the case of B2, the “Affinity Increase (fold)” value is reported as 2.3 fold. With B3 the “Affinity Increase (fold)” value was 3.3 fold. For B4, the “Affinity Increase (fold)” value was 10.4 fold.

Each binder was assayed against T6, His-tagged CHIKV E2 SL15649 (Chikungunya virus strain SL15649, UniProt Q8JUX5 326-1220) (assay: SPR, His-tagged antigen captured).
T6 construct: also called CHIKV pE2-E1 antigen derived from CHIKV strain SL15649; pE2-E1 target
B7: binds.

The binders below were run against T4, His-tagged CHIKV E2 LR2006 (assay: SPR, His-tagged antigen captured).
B7: binds.

Biological target: T5, Recombinant human HPC4-tagged …
Assay: SPR (Biacore 3000), HPC4-tagged FcγRIIIa-V158 captured on anti-HPC4 CM5 chip, antibody injected 2 min, in duplicate; concentration (900, 300 or 100 nM in the methods) not printed on the sheet
Remark: another data set of the same source
B5: binds. B6: binds. B7: binds.

Biological target: T3, recombinant mouse FcRn
Assay: SPR (Biacore T200), mouse FcRn immobilised on CM5 chip
Remark: another data set of the same source
Binder B5 has a Kd of 22 nM. For B6, the Kd was 20 nM. B7 showed a Kd of 1.2 nM.
